Laboratory results as given in patent US20160039936A1, “FIBROBLAST GROWTH FACTOR RECEPTOR INHIBITION FOR THE TREATMENT OF DISEASE” (UNIVERSITY OF MIAMI, priority 2011, published 2016).

Legend:
C57BL/6 mice [1] = experiment: Intra-myocardial injection of FGF23 in mice; assay type: in vivo, mouse; details: 7.5 ng FGF23 intra-myocardial
Method: Twelve-week old adult C57BL/6 mice (Jackson Laboratories) underwent cardiac surgery using a standard operative procedure that has been described previously for intra-myocardial implantation of stem cells (Amado et al., Proc. Natl. Acad. Sci. U.S.A., 102(32):11474-11479, 2005). All procedures were performed by a single investigator who was blinded to the specific treatment group. All protocols and experimental procedures were approved by the Institutional Animal Care and Use Committee at the University of Miami Miller School of Medicine. Briefly, mice were anesthetized with isoflurane and an incision was made between the 3rd and 4th rib to reveal a cardiac window. Three injections of purified recombinant murine FGF23 in PBS or PBS alone were delivered into the free wall of the left ventricle via a 30-gauge needle attached to a standing Hamilton syringe. At each of the three sites, 10 μl were injected for a total of 30 μl containing a total of 7.5 ng FGF23. Cardiac function was evaluated by Vevo 770 imaging system (Visual Sonics, Toronto, Canada) at baseline and 2 weeks after surgery. Long and short axis 2D parasternal views and short axis M mode views were recorded under general anesthesia with isoflurane inhalation delivered through a nose mask. The heart rate was maintained above 400 bpm with controlled body temperature set to 37° C. At 7- and 14-days post-injection, animals were sacrificed, hearts were isolated, perfused ex-vivo (6 ml of 10% Formalin with 4 ml of 20 mM KCl), stored overnight in 10% formalin for fixation, and then serially sectioned (7 μm slices) and stained with hematoxylin and eosin. Age-matched untreated animals were sacrificed at 14 weeks of life. […]
(§1) Short-axis cardiac sections were used to quantify myocardial thickness by measuring the distance from the inner to the outer myocardial zone at the mid-chamber zone. […] Since klothro-ablated kl/kl mice display severe growth retardation with small hearts (Kuro-o et al., Nature, 390(6655):45-51, 1997), we also measured relative wall thickness calculated as two times the anterior wall thickness divided by left ventricular internal diameter. Total RNA was isolated from flash frozen hearts using TRIzol (Invitrogen) and RT-PCR analyses were performed as described above.
(§2) We measured cross-sectional surface area of cardiac myocytes in paraffin-embedded short-axis sections of the heart. Briefly, 7 μm thick sections were deparaffinized according to our established protocols. To specifically label cardiac myocytes, we used mouse monoclonal MF20 antibody against sarcomeric myosin at 1:200 and Cy5-conjugated donkey-anti mouse (Invitrogen) as secondary antibody at 1:400. To visualize nuclei, fixed tissue was incubated with 4′,6-diamidino-2-phenylindole (DAPI; 400 ng/ml in PBS) for 5 minutes. To visualize cellular borders, fixed tissue was incubated with wheat germ agglutinin (WGA) conjugated to Alexa Fluor 555 (Invitrogen) at 1 mg/ml in PBS containing 10 mM sodium azide. Immunofluorescence images were taken on a Leica TCS-SP5 confocal microscope with a 63× oil objective. Leica AF6000 fluorescence software was used to quantify cross-sectional cell surface area of 25 cells per field at four fields along the mid-chamber free wall based on WGA-positive staining.
Blood was collected at sacrifice via cardiac puncture and was centrifuged at 4° C. and 14,000 rpm for 15 minutes. Plasma supernatants were collected, stored at −80° C., and subsequently analyzed in batches for FGF23 (C-terminal mouse assay, Immutopics), PTH (1-84 assay, Alpco Immunoassays), and phosphate, calcium, BUN and creatinine (Ortho Vitros 250 Chemistry Analyzer).

C57BL/6 mice [2] = experiment: Intravenous injection of FGFs (with or without Fc-FGFR decoy receptors) in mice; assay type: in vivo, mouse; details: FGF23 40 μg/kg i.v. twice daily 5 days
Method: Twelve-week old adult C57BL/6 mice underwent tail vein injections using standard protocols as previously described for the systemic delivery of plasmid DNA (Faul et al., 2008). Briefly, mice were placed in a restrainer and 40 μg/kg of FGF23 dissolved in 200 μl of PBS were injected into the tail vein of 5 mice twice daily with eight hours in between injections for 5 consecutive days. Four mice underwent the same injection schedule using 200 μl of PBS alone as negative control. On the morning of the 6th day, 16 hours after the final tail vein injections, animals were sacrificed and the hearts were isolated and prepared using the same protocol as described above.
as §1, §2
Next, we wanted to determine the effectiveness of this FGFR trapping system on FGF-induced LVH in mice. To our knowledge, Fc decoy receptors have not yet been used to study FGFR function in vivo in any biological context, but served as valuable tools to analyze the functions of other receptor tyrosine kinases, like receptors for vascular endothelial growth factor (VEGFR) and their role in tumor growth and metastasis. We used similar Fc-FGFR concentrations as described for Fc-VEGFR in animal models of cancer (Lin J et al., Cancer Res. 2005; 65(15):6901-9).

B1: FGF23: recombinant mouse FGF23, 6His-tagged Tyr25-Val251 (Arg179Gln) (R&D Systems) (protein)
chain: YPDTSPLLGSNWGSLTHLYTATARTSYHLQIHRDGHVDGTPHQTIYSALMITSEDAGSVVITGAMTRRFLCMDLHGNIFGSLHFSPENCKFRQWTLENGYDVYLSQKHHYLVSLGRAKRIFQPGTNPPPFSQFLARRNEVPLLHFYTVRPRRHTQSAEDPPERDPLNVLKPRPRATPVPVSCSRELPSAEEGGPAASDPLGVLRRGRGDARGGAGGADRCRPFPRFV
modifications: left off: small tags and cut ends
cross-sectional surface area of cardiac myocytes (WGA) (C57BL/6 mice [1]): significant increase | expression of β-MHC, ANP and BNP (C57BL/6 mice [1]): increase | α-MHC and MCAD mRNA levels (C57BL/6 mice [1]): decrease | thickness of the left ventricular free wall (C57BL/6 mice [1]; day 7, vs vehicle): significant increase | left ventricular internal diameter in diastole (C57BL/6 mice [1]; day 14): significantly decreased | relative wall thickness (C57BL/6 mice [1]; day 14): increased | thickness of the left ventricular free wall (C57BL/6 mice [1]; day 14): increased further | ratio of heart weight to tibial length (C57BL/6 mice [1]; day 14, vs vehicle): significantly increased | thickness of the interventricular septum (C57BL/6 mice [1]; day 14, vs vehicle): increased significantly | levels of FGF23, phosphate, calcium, PTH, BUN, or creatinine vs vehicle (C57BL/6 mice [1]; days 7 and 14): no significant differences | ejection fraction (C57BL/6 mice [1]; echocardiography over time): no change | cardiac weight/tibial length (C57BL/6 mice [2]; vs vehicle): significantly increased | cross-sectional surface area of individual cardiac myocytes (C57BL/6 mice [2]; vs vehicle): increased | expression of α-MHC and MCAD mRNA levels (C57BL/6 mice [2]; vs vehicle): decreased expression | expression of β-MHC, ANP and BNP (C57BL/6 mice [2]; vs vehicle): increased expression | left ventricular wall thickness (C57BL/6 mice [2]; vs vehicle): increased | FGF23 levels at the time of sacrifice (C57BL/6 mice [2]; 16 hours after final injection, vs PBS): significantly increased
